In patent US20060052292A1 (MAXYGEN APS MAXYGEN, published 2006):

Molecular target: the molecule itself
Assay: native Tris-Glycine gel, self-association (homotrimer) of apM1(82-244)
Procedure: After storage at −20° C. for several weeks the material was verified to have a heterogeneous appearance on a coomassie stained Novex 8-16% Tris-Glycine gel (Invitrogen; Cat. No. EC60452) run under native conditions (FIG. 4, lane 1). […] (In FIG. 4, M is SeeBlue Plus2).

B1: apM1(82-244), human adiponectin fragment expressed in CHO K1 cells (other)
chain: ETGVPGAEGPRGFPGIQGRKGEPGEGAYVYRSAFSVGLETYVTIPNMPIRFTKIFYNQQNHYDGSTGKFHCNIPGLYYFAYHITVYMKDVKVSLFKKDKAMLFTYDQYQENNVDQASGSVLLHLEVGDQVWLQVYGEGERNGLYADNDNDSTFTGFLLYHDTN
modifications: partial hydroxy-Pro at 86, 95 and 104; partial glyco-hydroxy-Lys at 101 (about 60%)
notes: Forms a calcium-stabilised homotrimer on native gels; On the Western blot the denatured monomer is detected
B1: binds.
